T1: RAP (RIP-associated protein) (human, UniProt Q9Y3I1 1-522, limits assumed)
T1 construct: The clone first isolated in the two-hybrid screen was a partial clone of about 1.9 Kb; also called RAP protein; RAP-1 (clone of about 2.2 kB, CNCM I-2706)
T1 sequence: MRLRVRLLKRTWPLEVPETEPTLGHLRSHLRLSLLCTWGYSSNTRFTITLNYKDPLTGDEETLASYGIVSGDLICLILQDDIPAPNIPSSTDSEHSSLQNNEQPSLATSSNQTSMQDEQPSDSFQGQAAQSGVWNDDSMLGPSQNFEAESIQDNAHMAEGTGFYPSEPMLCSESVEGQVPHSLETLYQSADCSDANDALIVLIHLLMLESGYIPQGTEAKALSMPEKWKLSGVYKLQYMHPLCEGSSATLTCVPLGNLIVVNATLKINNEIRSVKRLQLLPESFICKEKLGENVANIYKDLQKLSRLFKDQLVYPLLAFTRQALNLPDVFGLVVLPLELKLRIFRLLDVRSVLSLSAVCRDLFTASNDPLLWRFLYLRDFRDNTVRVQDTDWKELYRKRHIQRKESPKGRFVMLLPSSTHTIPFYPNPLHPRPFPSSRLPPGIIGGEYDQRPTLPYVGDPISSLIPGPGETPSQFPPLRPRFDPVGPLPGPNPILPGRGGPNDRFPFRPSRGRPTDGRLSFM

B1: TRADD (other, UniProt Q15628 1-312, looked up)
chain: MAAGQNGHEEWVGSAYLFVESSLDKVVLSDAYAHPQQKVAVYRALQAALAESGGSPDVLQMLKIHRSDPQLIVQLRFCGRQPCGRFLRAYREGALRAALQRSLAAALAQHSVPLQLELRAGAERLDALLADEERCLSCILAQQPDRLRDEELAELEDALRNLKCGSGARGGDGEVASAPLQPPVPSLSEVKPPPPPPPAQTFLFQGQPVVNRPLSLKDQQTFARSVGLKWRKVGRSLQRGCRALRDPALDSLAYEYEREGLYEQAFQLLRRFVQAEGRRATLQRLVEALEENELTSLAEDLLGLTDPNGGLA
B2: p75-R (receptor, UniProt P20333 287-461, looked up)
chain: VKKKPLCLQREAKVPHLPADKARGTQGPEQQHLLITAPSSSSSSLESSASALDRRAPTRNQPQAPGVEASGAGEARASTGSSDSSPGGHGTQVNVTCIVNVCSSSDHSSQCSSQASSTMGDTDSSPSESPKDEQVPFSKEECAFRSQLETPETLLGSTEEKPLPLGVPDAGMKPS
notes: also called p75 TNF-R; p75 tumor necrosis factor receptor
B3: MORT-1 (other, UniProt Q13158 1-208, looked up)
chain: MDPFLVLLHSVSSSLSSSELTELKFLCLGRVGKRKLERVQSGLDLFSMLLEQNDLEPGHTELLRELLASLRRHDLLRRVDDFEAGAAAGAAPGEEDLCAAFNVICDNVGKDWRRLARQLKVSDTKIDSIEDRYPRNLTERVRESLRIWKNTEKENATVAHLVGALRSCQMNLVADLVQEVQQARDLQNRSGAMSPMSWNSDASTSEAS
notes: also called FADD
B4: p55-R (receptor, UniProt P19438 235-455, looked up)
chain: RYQRWKSKLYSIVCGKSTPEKEGELEGTTTKPLAPNPSFSPTPGFTPTLGFSPVPSSTFTSSSTYTPGDCPNFAAPRREVAPPYQGADPILATALASDPIPNPLQKWEDSAHKPQSLDTDDPATLYAVVENVPPLRWKEFVRRLGLSDHEIDRLELQNGRCLREAQYSMLATWRRRTPRREATLELLGRVLRDMDLLGCLEDIEEALCGPAALPPAPSLLR
notes: also called p55 TNF-R; p55 tumor necrosis factor receptor

The binders below were run against T1, RAP (RIP-associated protein) (assay: binding assay tests (method not named)).

Row | Binder | binding result
1 | B1 | no binding
2 | B2 | no binding
3 | B3 | no binding
4 | B4 | no binding
